Assay results as given in publication PMC13184981 (ACS Chemical Biology, 2026).

Biological target: the molecule itself
Assay: mass photometry

B1: Purified recombinant full-length LIMK1 (natural protein)
chain: MRLTLLCCTWREERMGEEGSELPVCASCGQRIYDGQYLQALNADWHADCFRCCDCSASLSHQYYEKDGQLFCKKDYWARYGESCHGCSEQITKGLVMVAGELKYHPECFICLTCGTFIGDGDTYTLVEHSKLYCGHCYYQTVVTPVIEQILPDSPGSHLPHTVTLVSIPASSHGKRGLSVSIDPPHGPPGCGTEHSHTVRVQGVDPGCMSPDVKNSIHVGDRILEINGTPIRNVPLDEIDLLIQETSRLLQLTLEHDPHDTLGHGLGPETSPLSSPAYTPSGEAGSSARQKPVLRSCSIDRSPGAGSLGSPASQRKDLGRSESLRVVCRPHRIFRPSDLIHGEVLGKGCFGQAIKVTHRETGEVMVMKELIRFDEETQRTFLKEVKVMRCLEHPNVLKFIGVLYKDKRLNFITEYIKGGTLRGIIKSMDSQYPWSQRVSFAKDIASGMAYLHSMNIIHRDLNSHNCLVRENKNVVVADFGLARLMVDEKTQPEGLRSLKKPDRKKRYTVVGNPYWMAPEMINGRSYDEKVDVFSFGIVLCEIIGRVNADPDYLPRTMDFGLNVRGFLDRYCPPNCPPSFFPITVRCCDLDPEKRPSFVKLEHWLETLRMHLAGHLPLGPQLEQLDRGFWETYRRGESGLPAHPEVPD
notes: source: insect cells, baculovirus, purified (Ni-NTA, SP Sepharose, TEV cleavage, SEC)
stoichiometry N: 2
